# Laboratory results published in US20210261937.
# B1: hsSENP2 (protein)
# chain: EFPEITEEMEKEIKNVFRNGNQDEVLSEAFRLTITRKDIQTLNHLNWLNDEIINFYMNMLMERSKEKGLPSVHAFNTFFFTKLKTAGYQAVKRWTKKVDVFSVDILLVPIHLGVHWCLAVVDFRKKNITYYDSMGGINNEACRILLQYLKQESIDKKRKEFDTNGWQLFSKKSQEIPQQMNGSDCGMFACKYADCITKDRPINFTQQHMPYFRKRMVWEILHRKLL
# B2: bdSENP1^MutB protease (protein)
# chain: PFVPLTDEDEDNVRHALGGRKRSETLSVHEASSIVITREILQCLNDKEWLNDEVINLYLELLKERELREPNKFLKCHFFNTFFYKKLINGGYDYKSVREWTTKRKLGYNLIDCDKIFVPIHKDVHWCLAVINIKEKKFQYLDSLGYMDMKALRILAKYLVDEVKDKSGKQIDVHAWKQEGVQNLPLQENGWDCGMFMLKYIDFYSRDMELVFGQKHMSYFRRRTAKEILDLKAG
# How the values were obtained:
# [1] = target: scSUMO-MBP fusion protein with the bdSUMO^Mut11 exchanges
# [2] = target: bdSUMO Mut8-MBP fusion protein
# [3] = target: hsSUMO2-MBP fusion protein
# [4] = target: hsSUMO2-MBP fusion protein with the bdSUMO^Mut11 exchanges
# [5] = target: scSUMO-MBP fusion protein with the bdSUMO^Mut1 exchanges
# [6] = target: hsSUMO2-MBP fusion protein with the bdSUMO^Mut1 exchanges
# [7] = target: bdSUMO-MBP fusion protein
# [8] = target: bdSUMO Mut12-MBP fusion protein
# [9] = target: bdSUMO Mut14-MBP fusion protein
# [10] = target: bdSUMO Mut15-MBP fusion protein
# [11] = target: scSUMO-MBP fusion protein
# [12] = target: bdSUMO^Mut1-MBP fusion protein
# [13] = target: bdSUMO Mut10-MBP fusion protein
# [14] = target: bdSUMO D67K-MBP fusion protein
# [15] = target: bdSUMO Mut11-MBP fusion protein
# [16] = target: bdSUMO Mut13-MBP fusion protein
Protein,cleavage of the SUMO fusion protein [2],cleavage of the SUMO fusion protein [3],cleavage of the SUMO fusion protein [7],cleavage of the SUMO fusion protein [8],cleavage of the SUMO fusion protein [9],cleavage of the SUMO fusion protein [10],cleavage of the SUMO fusion protein [11],cleavage of the SUMO fusion protein [12],cleavage of the SUMO fusion protein [13],cleavage of the SUMO fusion protein [14],cleavage of the SUMO fusion protein [15],cleavage of the SUMO fusion protein [16],also measured
B1,resistant,100 % cleavage,< 50 % cleavage,resistant,resistant,resistant,100 % cleavage,resistant,resistant,resistant,resistant,resistant,"cleavage of SUMO-MBP fusion, 1 h at 25 °C (FIG. 14) [1]: allowed cleavage resistance against Ulp1, SUMOstar protease, hsSENP2 and bdSENP1; cleavage of SUMO-MBP fusion, 1 h at 25 °C (FIG. 14) [4]: allowed cleavage resistance against Ulp1, SUMOstar protease, hsSENP2 and bdSENP1; cleavage of SUMO-MBP fusion, 1 h at 25 °C (FIG. 14) [5]: allowed cleavage resistance against Ulp1, SUMOstar protease, hsSENP2 and bdSENP1; cleavage of SUMO-MBP fusion, 1 h at 25 °C (FIG. 14) [6]: allowed cleavage resistance against Ulp1, SUMOstar protease, hsSENP2 and bdSENP1"
B2,< 50 % cleavage,resistant,< 25 % cleavage,100 % cleavage,100 % cleavage,100 % cleavage,resistant,100 % cleavage,100 % cleavage,< 75 % cleavage,100 % cleavage,100 % cleavage,"cleavage of SUMO-MBP fusion (FIG. 14) [3]: wild type scSUMO and human SUMO-2 (hsSUMO2) fusion proteins remain intact even in the presence of extremely high concentration of bdSENP1^MutB; cleavage of SUMO-MBP fusion (FIG. 14) [11]: wild type scSUMO and human SUMO-2 (hsSUMO2) fusion proteins remain intact even in the presence of extremely high concentration of bdSENP1^MutB; molar excess of substrate cleaved within one hour at 0 °C [12]: able to cleave a 500-fold molar excess of substrate within one hour at 0 °C; protease concentration that cleaves the cognate substrate, 1 h at 0 °C (FIG. 7) [12]: bdSENP1^MutB protease only cleaved its cognate substrate at a concentration of 200 nM; protease concentration that cleaves ≈95% of 100 µM substrate, 1 h at 0 °C [12]: only 200 nM of bdSENP1^MutB protease were enough to cleave ≈95% of the cognate substrate (bdSUMOmut 1); proteolytic efficiency against TEV protease [12]: around 1000-fold more efficient than the site-specific protease from the tobacco etch virus (TEV protease); proteolytic efficiency against bdSENP1 or Ulp1 on their cognate substrates [12]: only 5-fold less efficient as compared bdSENP1 or Ulp1; cleavage of 100 µM fusion, 1 h at 0 °C (FIG. 7) (SUMOstar-MBP fusion): the SUMOstar-MBP fusion remained intact even at the highest protease concentration of 10 µM"
